Laboratory results from patent publication CN114075285A (REYOUNG SUZHOU BIOPHARMACEUTICAL CO LTD, dated 2022).

B1: RB0021-S3 (antibody)
chain 1: not shown
chain 2: DVQMTQSPSSVSASVGDRVTITCRSSQSPEHSNGNTYLHWYQQKPGKAPKLLIYKVSNRFSGVPSRFSGSGSGTDFTLTISSLQPEDFATYFCSQGTHFPFTFGQGTKVEIKRTVAAPSVFIFPPSDEQLKSGTASVVCLLNNFYPREAKVQWKVDNALQSGNSQESVTEQDSKDSTYSLSSTLTLSKADYEKHKVYACEVTHQGLSSPVTKSFNRGEC
B2: RB0021-S4 (antibody)
chain 1: not shown
chain 2: B1 chain 2

How the values were obtained:
[1] = molecular target: CD38 antigen on the cell surface (Daudi cells; NCI-H929 cells) (human, UniProt P28907 1-300); test: cell-based or functional assay
[2] = molecular target: T1, CD38 (human), analyte in Biacore (human, UniProt P28907 43-300, limits assumed); test: SPR (Biacore 8K), antibody captured on Protein A chip, CD38 as analyte, 25℃
T1 construct: also called 分析物CD38; 人的CD38蛋白

| Binder | ADCC reporter (Jurkat-Lucia-NFAT-CD16 + NCI-H929), EC50(μg/mL) [1] [µg/mL] | Kd [2] [nM] |
| --- | --- | --- |
| B1 | 0.011 | 1.04 |
| B2 | 0.014 | 1.04 |
